Assay [1] deals with T1, 人PD-1-hFc (human, UniProt Q15116 21-167).
T1 construct: range 21-167; also called 重组人PD-1; Lot 20180329; not shown: human Fc (hFc)
Nature of the assay: competition ELISA, PD-1-hFc coated, competitor PD-L1-mFc at 1 μg/mL.

The target of assay [2] is T1, 人PD-1-hFc. Nature of the assay: competition ELISA, PD-1-hFc coated, competitor PD-L2-hFc-Biotin at 2 μg/mL.

T1 sequence (Q15116 21-167 limits assumed, form in doubt): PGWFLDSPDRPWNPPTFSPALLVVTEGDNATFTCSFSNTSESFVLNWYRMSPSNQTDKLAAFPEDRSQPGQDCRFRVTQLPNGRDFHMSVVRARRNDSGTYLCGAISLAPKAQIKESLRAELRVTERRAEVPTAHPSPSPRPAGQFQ

B1: h317 (antibody, V domains shown)
VH: EVQLVESGGGLVKPGGSLRLSCAASGFTFSSYDMSWVRQAPGKGLEWVATISGGGSYTYYPDSVKGRFTISRDNAKNSLYLQMNSLRAEDTAVYYCASPDSSGVAYWGQGTLVTVSS
VL: DIVMTQSPLSLPVTPGEPASITCKASQDVETVVAWYLQKPGQSPRLLIYWASTRHTGVPDRFSGSGSGTDFTLKISRVEAEDVGVYYCQQYSRYPWTFGQGTKL
Regarding B1, the IC50 in the assay with 人PD-1-hFc [1] came to 1.4 nM; with 人PD-1-hFc [2], 1.2 nM.
